From patent CN114790240A (UNIV ZHENGZHOU; UNIV HENAN AGRICULTURAL, dated 2022)

B1: 单克隆抗体8H9 (antibody, V domains shown)
VH: QIQLVQSGPELKKPGETVKISCKASGYTFTTYGMSWVKQTPGKGLKWMGWINTYSGVPTYADDFKGRFAFSLETSASTASLQINNLKNEDTATYFCARYDPTAPDYAMDYWGQGTSVTVSS
VL: NIVMTQSPKSMSMSVGERVTLSCKASENVGTYVSWYQQKPEQSPKLLIYGASNRYTGVPDRFTGSGSATDFTLTISSVQAEDLADYHCGQSYIYPLTFGAGTNLELK
B2: 单克隆抗体9D4 (antibody, V domains shown)
VH: QVHLQQSGPELVKPGASVKISCKSSGYALTDYYINWVKQRPGQGLEWIGWIFPGNDYTYFNEKFKDKATLTLDKSSRTAYMLLSSLTTEDSAVYFCARYGDGNYVYFDYWGQGTSLTVSS
VL: ETVLIQSPALMAASPGEKVTITCSVSSSISSSNLHWYQQKSGNSPKPWIYGTSNLASGVPVRFSGSGSGTSYSLTISSMEAEDAATYYCQQWSSYPLTFGAGTKLELK

Experiments:
[1] = biological target: SARS-CoV-2野生株假病毒 (刺突蛋白) (SARS-CoV-2, UniProt P0DTC2 14-1273); experiment: cell-based or functional assay
[2] = biological target: 重组RBD蛋白 (SARS-CoV-2 RBD蛋白) (SARS-CoV-2, UniProt P0DTC2 331-524)

Binder | 假病毒中和活性IC50 [1] [ng/mL] | EC50 [2] [µg/mL]
B1 | 33 | 0.0251
B2 | 112 | 0.0242
